2 molecules from paper PMC2692654 can be followed below.

Series [1] addresses T1, M.HhaI methyltransferase (UniProt P05102 1-327).
T1 sequence: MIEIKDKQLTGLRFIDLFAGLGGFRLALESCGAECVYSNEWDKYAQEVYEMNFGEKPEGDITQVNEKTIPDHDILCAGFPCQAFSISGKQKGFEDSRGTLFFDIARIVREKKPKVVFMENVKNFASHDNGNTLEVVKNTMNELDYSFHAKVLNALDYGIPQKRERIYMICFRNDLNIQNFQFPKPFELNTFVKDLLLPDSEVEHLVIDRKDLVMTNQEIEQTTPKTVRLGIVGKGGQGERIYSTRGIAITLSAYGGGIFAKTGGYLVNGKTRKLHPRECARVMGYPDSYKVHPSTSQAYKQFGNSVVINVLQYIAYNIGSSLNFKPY
In words: electrochemical E-DNA sensor.

Series [2] concerns the target T1, M.HhaI methyltransferase. Nature of the series: electrochemical E-DNA sensor. This is another data set of the same source.

Like-named read-outs stand apart in the source and are kept apart here.

Take CGGGCTATATAAGGGGCGTTTTCTTATATAG (structured_DNA, 5' HS-(CH2)6 thiol; internal T10 C5-linked methylene blue) [TATA probe]: the binding result in the series with M.HhaI methyltransferase [1] is “no binding”.

For AAGACGAGCGCATGTTTATGCGCTC (structured_DNA, 5' HS-(CH2)6 thiol; internal T16 C5-linked methylene blue) [M.HhaI probe], the binding result with M.HhaI methyltransferase [2] was “binds”.
